Measurements reported in PMC5846801, “Disease Variants of FGFR3 Reveal Molecular Basis for the Recognition and Additional Roles for Cdc37 in Hsp90 Chaperone System” (Structure(London, England:1993), 2018).
Positions count from the first letter of the chain named. Names may count otherwise.

B1: FGFR3 kinase domain variant E466K (domain or fragment)
chain: SELELPADPKWKLSRARLTLGKPLGEGCFGQVVMAEAIGIDKDRAAKPVTVAVKMLKDDATDKDLSDLVSEMEMMKMIGKHKNIINLLGACTQGGPLYVLVEYAAKGNLREFLRARRPPGLDYSFDTCKPPEEQLTFKDLVSCAYQVARGMEYLASQKCIHRDLAARNVLVTEDNVMKIADFGLARDVHNLDYYKKTTNGRLPVKWMAPEALFDRVYTHQSDVWSFGVLLWEIFTLGGSPYPGIPVEELFKLLKEGHRMDKPANCTHDLYMIMRECWHAAPSQRPTFKQLVEDLDRVLTVTSTDEYLDLSAPFE
notes: FGFR3 kinase domain, amino acids 455-768 of human FGFR3, disease-linked (cancer) mutation E466K; also called FGFR3^E466K; source: E. coli C41 (DE3), co-expressed with lambda phosphatase, purified (HisTrap, HiTrap Q, Superdex 200)
B2: FGFR3 kinase domain variant I538F (domain or fragment)
chain: B1 chain with K12E, I84F
notes: FGFR3 kinase domain, amino acids 455-768 of human FGFR3, disease-linked (cancer) mutation I538F; pJ821 construct; 15N labelled for NMR; also called FGFR3^I538F; GFR3^I538F; source: E. coli C41 (DE3), co-expressed with lambda phosphatase, purified (HisTrap, HiTrap Q, Superdex 200); not shown: His-SUMO, N-terminal, cleaved
B3: FGFR3 kinase domain variant N540K (domain or fragment)
chain: B1 chain with K12E, N86K
notes: FGFR3 kinase domain, amino acids 455-768 of human FGFR3, disease-linked mutation N540K; pJ821 construct; also called FGFR3^N540K; source: E. coli C41 (DE3), co-expressed with lambda phosphatase, purified (HisTrap, HiTrap Q, Superdex 200); not shown: His-SUMO, N-terminal, cleaved
B4: non-phosphorylated Cdc37 (natural protein)
chain: MVDYSVWDHIEVSDDEDETHPNIDTASLFRWRHQARVERMEQFQKEKEELDRGCRECKRKVAECQRKLKELEVAEGGKAELERLQAEAQQLRKEERSWEQKLEEMRKKEKSMPWNVDTLSKDGFSKSMVNTKPEKTEEDSEEVREQKHKTFVEKYEKQIKHFGMLRRWDDSQKYLSDNVHLVCEETANYLVIWCIDLEVEEKCALMEQVAHQTIVMQFILELAKSLKVDPRACFRQFFTKIKTADRQYMEGFNDELEAFKERVRGRAKLRIEKAMKEYEEEERKKRLGPGGLDPVEVYESLPEELQKCFDVKDVQMLQDAISKMDPTDAKYHMQRCIDSGLWVPNSKASEAKEGEEAGPGDPLLEAVPKTGDEKDVSV
notes: human Hsp90 co-chaperone Cdc37, expressed from pET28 (gift of C. Vaughan; Vaughan et al., 2006), not phosphorylated; Used in ITC and in the auto-phosphorylation assay and in the comparison with the phosphorylated form; No tag removal step is described; also called CDC37^Apo; Cdc37^Apo; source: E. coli C41 (DE3), purified (HisTrap, HiTrap Q, Superdex 200)

How the values were obtained:
Details in all cases: both partners purified
Hsp90α = target: T1, Hsp90α (human, UniProt P07900 1-732); test: SEC; ternary mixture: 15 μM kinase, 15 μM Cdc37, 30 μM Hsp90α (1:1:2), 15 min at 4 °C; Superdex 200 Increase, 25 mM Tris.Cl, 150 mM NaCl, 1 mM TCEP, pH 8.0, 4 °C; fractions by SDS-PAGE and ELISA
T1 construct: human Hsp90α, expressed from pRSET (gift of C. Vaughan; Vaughan et al., 2006); Used at a 2:1:1 ratio to Cdc37 and kinase; source: E. coli C41 (DE3), purified (HisTrap, HiTrap Q, Superdex 200)

non-phosphorylated Cdc37 = target: B4; test: ITC; kinase domain in the cell (FGFR3 WT 19.4 μM, FGFR3 I538F 16.9 μM), Cdc37 Apo 211.7 μM in the syringe; 25 mM Tris.Cl, 50 mM NaCl, 5 mM MgCl2, 0.1 mM TCEP, pH 7.5, 20 °C; single site model
[1] = target: B2; test: as above

Q: Does B1 bind (Hsp90α)?
A: Result: binds

Q: With B2 as the binder, how does the Kd (non-phosphorylated Cdc37) read?
A: Its Kd is 1800 nM.

Q: Does B2 bind (Hsp90α)?
A: Result: binds

Q: Does B3 bind (Hsp90α)?
A: Result: binds

Q: How did the “stoichiometry N” value [1] turn out when B4 was run?
A: The value was 1.
